Literature values in patent US20250282866A1, “TREATMENT OF DISEASES RELATED TO ATP-BINDING CASSETTE TRANSPORTER 1 DYSFUNCTION USING TREM2 AGONISTS” (VIGIL NEUROSCIENCE, INC., priority 2020, published 2025).
Read-outs that look alike come from different tables or passages of the source. Marks after values point to notes of the source that are not given here.

Target: T1, human TREM2 (Homo sapiens, UniProt Q9NZC2)
T1 sequence (Q9NZC2 19-230): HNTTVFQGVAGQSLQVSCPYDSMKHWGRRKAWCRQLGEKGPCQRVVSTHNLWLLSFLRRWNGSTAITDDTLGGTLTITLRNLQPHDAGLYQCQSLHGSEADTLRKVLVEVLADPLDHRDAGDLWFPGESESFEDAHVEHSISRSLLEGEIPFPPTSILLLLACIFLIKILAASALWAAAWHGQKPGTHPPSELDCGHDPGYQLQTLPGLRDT
Settings: for Binding Signal (fold over 6E7 Parental antibody) 1st screen 110 nM or 10 nM: concentration 110 nM or 10 nM (footnote a not given)

[1] = values printed without asterisk

Binding Signal (fold over 6E7 Parental antibody) 1st screen 110 nM or 10 nM [1]	Binding Signal (fold over 6E7 Parental antibody) 2nd screen 2 nM (2nd screen)	Binding Signal (fold over 6E7 Parental antibody) 2nd screen 10 nM (2nd screen)	Binding Signal (fold over 6E7 Parental antibody) 1st screen 110 nM or 10 nM (values printed with asterisk)	Binding Signal (fold over 6E7 Parental antibody) 2nd screen 100 nM (2nd screen, 100 nM)	Molecule
5.41 fold over 6E7 Parental antibod	5.41 fold over 6E7 Parental antibod	5.37 fold over 6E7 Parental antibod			V85: 6E7 variant: VH T30R, I50T, Q99S; VL L54R (antibody, V domains shown) VH: EVQLVQSGAEVKKPGESLKISCKGSGYSFRSYWIAWVRQMPGKGLEWMGTIYPGDSDTRYSPSFQGQVTISADKSISTAYLQWSSLKASDTAMYFCARSRTFYYDSSDYFDYWGQGTLVTVSS VL: DIQMTQSPSSVSASVGDRVTITCRASQGISSWLAWYQQKPGKAPKLLIYAASSRQNGVPSRFSGSGSGTDFTLTISSLQPEDFATYFCQQADSFPRTFGQGTKLEIK
4.80 fold over 6E7 Parental antibod	5.17 fold over 6E7 Parental antibod	5.02 fold over 6E7 Parental antibod			V86: 6E7 variant: VH T30G, I34L, Q65E, Q99S; VL L54R (antibody, V domains shown) VH: EVQLVQSGAEVKKPGESLKISCKGSGYSFGSYWLAWVRQMPGKGLEWMGIIYPGDSDTRYSPSFEGQVTISADKSISTAYLQWSSLKASDTAMYFCARSRTFYYDSSDYFDYWGQGTLVTVSS VL: DIQMTQSPSSVSASVGDRVTITCRASQGISSWLAWYQQKPGKAPKLLIYAASSRQNGVPSRFSGSGSGTDFTLTISSLQPEDFATYFCQQADSFPRTFGQGTKLEIK
4.92 fold over 6E7 Parental antibod	5.57 fold over 6E7 Parental antibod	5.30 fold over 6E7 Parental antibod			V88: 6E7 variant: VH T30G; VL S53R, N56R, F94S (antibody, V domains shown) VH: EVQLVQSGAEVKKPGESLKISCKGSGYSFGSYWIAWVRQMPGKGLEWMGIIYPGDSDTRYSPSFQGQVTISADKSISTAYLQWSSLKASDTAMYFCARQRTFYYDSSDYFDYWGQGTLVTVSS VL: DIQMTQSPSSVSASVGDRVTITCRASQGISSWLAWYQQKPGKAPKLLIYAASRLQRGVPSRFSGSGSGTDFTLTISSLQPEDFATYFCQQADSSPRTFGQGTKLEIK
			0.33* fold over 6E7 Parental antibod	0.36 fold over 6E7 Parental antibod	V90: 6E7 variant: VH Y32E; VL S31R (antibody, V domains shown) VH: EVQLVQSGAEVKKPGESLKISCKGSGYSFTSEWIAWVRQMPGKGLEWMGIIYPGDSDTRYSPSFQGQVTISADKSISTAYLQWSSLKASDTAMYFCARQRTFYYDSSDYFDYWGQGTLVTVSS VL: DIQMTQSPSSVSASVGDRVTITCRASQGISRWLAWYQQKPGKAPKLLIYAASSLQNGVPSRFSGSGSGTDFTLTISSLQPEDFATYFCQQADSFPRTFGQGTKLEIK
3.57 fold over 6E7 Parental antibod	2.83 fold over 6E7 Parental antibod	3.47 fold over 6E7 Parental antibod			V26: 6E7 variant: VH A35G, I50T, F102M, Y112A; VL N56R, F94Y (antibody, V domains shown) VH: EVQLVQSGAEVKKPGESLKISCKGSGYSFTSYWIGWVRQMPGKGLEWMGTIYPGDSDTRYSPSFQGQVTISADKSISTAYLQWSSLKASDTAMYFCARQRTMYYDSSDYFDAWGQGTLVTVSS VL: DIQMTQSPSSVSASVGDRVTITCRASQGISSWLAWYQQKPGKAPKLLIYAASSLQRGVPSRFSGSGSGTDFTLTISSLQPEDFATYFCQQADSYPRTFGQGTKLEIK
3.84 fold over 6E7 Parental antibod	4.86 fold over 6E7 Parental antibod	3.93 fold over 6E7 Parental antibod			V87: 6E7 variant: VH T30R, T58V, S63D, Q99S; VL N56W (antibody, V domains shown) VH: EVQLVQSGAEVKKPGESLKISCKGSGYSFRSYWIAWVRQMPGKGLEWMGIIYPGDSDVRYSPDFQGQVTISADKSISTAYLQWSSLKASDTAMYFCARSRTFYYDSSDYFDYWGQGTLVTVSS VL: DIQMTQSPSSVSASVGDRVTITCRASQGISSWLAWYQQKPGKAPKLLIYAASSLQWGVPSRFSGSGSGTDFTLTISSLQPEDFATYFCQQADSFPRTFGQGTKLEIK

Further lines, the molecule ahead of its results:

Molecule	Binding Signal (fold over 6E7 Parental antibody) 1st screen 110 nM or 10 nM [1]	Binding Signal (fold over 6E7 Parental antibody) 2nd screen 2 nM (2nd screen)	Binding Signal (fold over 6E7 Parental antibody) 2nd screen 10 nM (2nd screen)	Binding Signal (fold over 6E7 Parental antibody) 1st screen 110 nM or 10 nM (values printed with asterisk)	Binding Signal (fold over 6E7 Parental antibody) 2nd screen 100 nM (2nd screen, 100 nM)
V15: 6E7 variant: VH T30A, I50T, Q99S; VL S53W, F94Y (antibody, V domains shown) VH: EVQLVQSGAEVKKPGESLKISCKGSGYSFASYWIAWVRQMPGKGLEWMGTIYPGDSDTRYSPSFQGQVTISADKSISTAYLQWSSLKASDTAMYFCARSRTFYYDSSDYFDYWGQGTLVTVSS VL: DIQMTQSPSSVSASVGDRVTITCRASQGISSWLAWYQQKPGKAPKLLIYAASWLQNGVPSRFSGSGSGTDFTLTISSLQPEDFATYFCQQADSYPRTFGQGTKLEIK	5.23 fold over 6E7 Parental antibod	4.72 fold over 6E7 Parental antibod	4.78 fold over 6E7 Parental antibod		
V14: 6E7 variant: VH T30G, S56Q, Q99G; VL S53R (antibody, V domains shown) VH: EVQLVQSGAEVKKPGESLKISCKGSGYSFGSYWIAWVRQMPGKGLEWMGIIYPGDQDTRYSPSFQGQVTISADKSISTAYLQWSSLKASDTAMYFCARGRTFYYDSSDYFDYWGQGTLVTVSS VL: DIQMTQSPSSVSASVGDRVTITCRASQGISSWLAWYQQKPGKAPKLLIYAASRLQNGVPSRFSGSGSGTDFTLTISSLQPEDFATYFCQQADSFPRTFGQGTKLEIK	4.71 fold over 6E7 Parental antibod	2.57 fold over 6E7 Parental antibod	4.64 fold over 6E7 Parental antibod		
V17: 6E7 variant: VH T30G, Q99S; VL L54R, F94S (antibody, V domains shown) VH: EVQLVQSGAEVKKPGESLKISCKGSGYSFGSYWIAWVRQMPGKGLEWMGIIYPGDSDTRYSPSFQGQVTISADKSISTAYLQWSSLKASDTAMYFCARSRTFYYDSSDYFDYWGQGTLVTVSS VL: DIQMTQSPSSVSASVGDRVTITCRASQGISSWLAWYQQKPGKAPKLLIYAASSRQNGVPSRFSGSGSGTDFTLTISSLQPEDFATYFCQQADSSPRTFGQGTKLEIK	5.37 fold over 6E7 Parental antibod	4.22 fold over 6E7 Parental antibod	5.51 fold over 6E7 Parental antibod		
V24: 6E7 variant: VH T58V, Q99S; VL N56K, R96H (antibody, V domains shown) VH: EVQLVQSGAEVKKPGESLKISCKGSGYSFTSYWIAWVRQMPGKGLEWMGIIYPGDSDVRYSPSFQGQVTISADKSISTAYLQWSSLKASDTAMYFCARSRTFYYDSSDYFDYWGQGTLVTVSS VL: DIQMTQSPSSVSASVGDRVTITCRASQGISSWLAWYQQKPGKAPKLLIYAASSLQKGVPSRFSGSGSGTDFTLTISSLQPEDFATYFCQQADSFPHTFGQGTKLEIK	2.64 fold over 6E7 Parental antibod	1.42 fold over 6E7 Parental antibod	2.90 fold over 6E7 Parental antibod		
V13: 6E7 variant: VH T30G, P62A, Q99G; VL N56G, F94M (antibody, V domains shown) VH: EVQLVQSGAEVKKPGESLKISCKGSGYSFGSYWIAWVRQMPGKGLEWMGIIYPGDSDTRYSASFQGQVTISADKSISTAYLQWSSLKASDTAMYFCARGRTFYYDSSDYFDYWGQGTLVTVSS VL: DIQMTQSPSSVSASVGDRVTITCRASQGISSWLAWYQQKPGKAPKLLIYAASSLQGGVPSRFSGSGSGTDFTLTISSLQPEDFATYFCQQADSMPRTFGQGTKLEIK	1.31 fold over 6E7 Parental antibod	1.15 fold over 6E7 Parental antibod	1.35 fold over 6E7 Parental antibod		
V25: 6E7 variant: VH T30G, I50L, Q99S; VL Q55A, F94M (antibody, V domains shown) VH: EVQLVQSGAEVKKPGESLKISCKGSGYSFGSYWIAWVRQMPGKGLEWMGLIYPGDSDTRYSPSFQGQVTISADKSISTAYLQWSSLKASDTAMYFCARSRTFYYDSSDYFDYWGQGTLVTVSS VL: DIQMTQSPSSVSASVGDRVTITCRASQGISSWLAWYQQKPGKAPKLLIYAASSLANGVPSRFSGSGSGTDFTLTISSLQPEDFATYFCQQADSMPRTFGQGTKLEIK	4.23 fold over 6E7 Parental antibod	3.15 fold over 6E7 Parental antibod	4.70 fold over 6E7 Parental antibod		
V16: 6E7 variant: VH F29M, S56G, Q99S; VL S53N (antibody, V domains shown) VH: EVQLVQSGAEVKKPGESLKISCKGSGYSMTSYWIAWVRQMPGKGLEWMGIIYPGDGDTRYSPSFQGQVTISADKSISTAYLQWSSLKASDTAMYFCARSRTFYYDSSDYFDYWGQGTLVTVSS VL: DIQMTQSPSSVSASVGDRVTITCRASQGISSWLAWYQQKPGKAPKLLIYAASNLQNGVPSRFSGSGSGTDFTLTISSLQPEDFATYFCQQADSFPRTFGQGTKLEIK	4.01 fold over 6E7 Parental antibod	3.57 fold over 6E7 Parental antibod	4.04 fold over 6E7 Parental antibod		
